In patent publication US20250346679A1:

Target: mouse CD137, cell-surface (mouse) (UniProt P20334)
Assay: cell-based or functional assay

mouse CD137, cell-surface (mouse), sequence (P20334 24-256): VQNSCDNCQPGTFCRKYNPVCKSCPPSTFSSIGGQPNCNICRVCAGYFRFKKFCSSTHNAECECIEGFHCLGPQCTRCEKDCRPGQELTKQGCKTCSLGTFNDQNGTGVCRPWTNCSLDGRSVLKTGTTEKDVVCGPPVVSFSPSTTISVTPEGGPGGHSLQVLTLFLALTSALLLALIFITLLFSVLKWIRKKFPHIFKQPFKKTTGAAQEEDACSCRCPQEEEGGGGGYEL

Question: What does the source list for G1-AA/Lob12.3 (antibody)?
Answer: +XL EC50 (nM), mouse CD137 DO11.10 T cell activation assay: 2.26 nM; +XL Emax (IL-2 pg/ml), mouse CD137 DO11.10 T cell activation assay: 21300 pg/mL; EC50 (nM), mIFN-γ release, OT-1 CD8+ T cell activation assay, with anti-hCH2: 0.36 nM; Emax (pg/ml), mIFN-γ release, OT-1 CD8+ T cell activation assay, with anti-hCH2: 17800 pg/mL
